{"source": "paper PMC8379990", "about": "“Structure of autoinhibited Akt1 reveals mechanism of PIP3-mediated activation” (Proceedings of the National Academy of Sciences of the …, 2021)", "binders": {"B1": {"name": "Akt1 1 to 456 (Akt1^ΔC) (domain or fragment)", "chain": "MNDVAIVKEGWLHKRGEYIKTWRPRYFLLKNDGTFIGYKERPQDVDQREAPLNNFSVAQCQLMKTERPRPNTFIIRCLQWTTVIERTFHVETPEEREEWTTAIQTVADGLKKQEEEEMDASAEHTDMEVSLAKPKHRVTMNEFEYLKLLGKGTFGKVILVKEKATGRYYAMKILKKEVIVAKDEVAHTLTENRVLQNSRHPFLTALKYSFQTHDRLCFVMEYANGGELFFHLSRERVFSEDRARFYGAEIVSALDYLHSEKNVVYRDLKLENLMLDKDGHIKITDFGLCKEGIKDGATMKTFCGTPEYLAPEVLEDNDYGRAVDWWGLGVVMYEMMCGRLPFYNQDHEKLFELILMEEIRFPRTLGPEAKSLLSGLLKKDPKQRLGGGSEDAKEIMQHRFFAGIVWQHVYEKKLSPPFKPQVTSETDTRYFDEEFTAQMITITPPDQDD", "modifications": "phosphothreonine at T450 (stoichiometrically monophosphorylated, turn motif)"}}, "target": "T1, C-terminal tail peptide (FITC-SMEAVDSERRPHFPQFSYSASGTA) (human, C460A (from the letters against P31749, from memory; not stated by the paper) …, FITC (fluorescein) on the N-terminus; unphosphorylated)", "T1 construct": "residues 457 to 480 of human Akt1 (the C-terminal tail residues missing in Akt1^ΔC); The methods call it 'the C-terminal 35 amino acids of Akt1', but the printed peptide has 24 residues; also called fluorescein-labeled peptide (unphosphorylated)", "T1 peptide": "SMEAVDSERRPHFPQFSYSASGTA", "experiment": "fluorescence polarisation; fluorescence anisotropy; reverse titration of 200 to 250 µM Akt1^ΔC in buffer with 100 nM fluorescein-labeled peptide; 20 °C, 20 mM Tris pH 8.0, 100 mM NaCl, 1 mM TCEP; one-site binding model; three independent titrations; saturation not reached", "conditions": "both partners purified"}
{"binder": "B1", "values": [{"measurement": "Kd", "value": "~500", "unit": "µM"}]}
